The data set concerns the target MAX:MAX (UniProt P61244 1-160). The data set can be described thus: EMSA; no SNF5; 15 mM Tris-HCl pH 7.9, 15% glycerol, 100 mM KCl, 0.15 mM EDTA, 0.075% NP-40, 7.5 mM 2-mercaptoethanol, 40 ng poly(dI-dC), 375 ng/ul BSA, 25 fmol probe, 10-15 ul, 30 min, room temperature; SUMO-BAF155(533-580) added to equalize total protein in SNF5 experiments. Particulars: protein: recombinant; tags: 6xHis; chain copies: 2; label: 3'-biotin.

Sequence of MAX:MAX (P61244 whole entry): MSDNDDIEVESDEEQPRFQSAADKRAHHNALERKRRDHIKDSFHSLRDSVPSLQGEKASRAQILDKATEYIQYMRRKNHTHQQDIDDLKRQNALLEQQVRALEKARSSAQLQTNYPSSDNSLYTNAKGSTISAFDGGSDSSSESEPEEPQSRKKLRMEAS

B1: wild-type E-box probe (dsDNA)
DNA 1: GCTCAGGGACCACGTGGTCGGGGATC
DNA 2: GATCCCCGACCACGTGGTCCCTGAGC
For B1, the binding result is given as “binds”.

Source of the values: PMC6494882, “Inhibition of MYC by the SMARCB1 tumor suppressor”.
